Measurements taken from publication PMC5579238, “MAPK1 of Leishmania donovani interacts and phosphorylates HSP70 and HSP90 subunits of foldosome complex” (Scientific Reports, 2017).
Counter-ions that a name gives are not always drawn. Values belong to the compound of their own block, whether it stands above or below them.

What was measured:
[1] = target: T1, LdMAPK1 (Leishmania donovani, UniProt E2CWC1); assay: Kinase-Glo Plus ATP consumption assay with recombinant HSP90 or HSP70 as substrate; Dixon plot; format: biochemical
T1 construct: GST fused rLdMAPK1 (pGEX-KG-LdMAPK1), expressed in E. coli
T1 sequence (E2CWC1 1-358): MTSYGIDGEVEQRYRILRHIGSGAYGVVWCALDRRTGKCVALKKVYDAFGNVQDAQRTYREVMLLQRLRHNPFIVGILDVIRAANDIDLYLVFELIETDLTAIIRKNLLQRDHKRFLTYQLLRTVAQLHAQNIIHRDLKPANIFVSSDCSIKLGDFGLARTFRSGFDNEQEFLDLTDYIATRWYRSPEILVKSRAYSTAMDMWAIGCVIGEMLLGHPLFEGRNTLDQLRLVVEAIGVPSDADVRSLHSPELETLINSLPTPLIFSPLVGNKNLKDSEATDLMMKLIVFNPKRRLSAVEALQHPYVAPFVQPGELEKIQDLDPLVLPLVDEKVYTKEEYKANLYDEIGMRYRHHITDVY

[2] = target: Leishmania donovani MAPK1 (L. donovani (endogenous in promastigotes))

HSP70, sequence (P17804 whole entry, the tested form may be a part): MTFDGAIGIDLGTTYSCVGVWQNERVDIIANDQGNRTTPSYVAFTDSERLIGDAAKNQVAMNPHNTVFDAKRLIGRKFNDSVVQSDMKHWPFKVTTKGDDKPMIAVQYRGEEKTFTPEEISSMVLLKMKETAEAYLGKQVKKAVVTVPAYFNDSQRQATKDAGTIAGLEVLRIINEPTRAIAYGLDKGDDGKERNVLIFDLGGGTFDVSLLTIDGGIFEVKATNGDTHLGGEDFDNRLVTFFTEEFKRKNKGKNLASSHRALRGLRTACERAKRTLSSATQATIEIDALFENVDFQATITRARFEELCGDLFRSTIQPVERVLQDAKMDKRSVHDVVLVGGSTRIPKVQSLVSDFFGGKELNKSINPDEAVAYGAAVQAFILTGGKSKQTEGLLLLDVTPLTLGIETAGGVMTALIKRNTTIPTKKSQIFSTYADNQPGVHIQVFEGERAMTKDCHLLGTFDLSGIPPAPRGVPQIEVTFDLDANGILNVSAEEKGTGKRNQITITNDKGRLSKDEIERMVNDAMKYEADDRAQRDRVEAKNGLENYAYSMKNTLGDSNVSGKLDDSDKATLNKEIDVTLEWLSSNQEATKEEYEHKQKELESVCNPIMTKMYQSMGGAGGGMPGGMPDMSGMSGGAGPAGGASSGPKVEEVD

- Ki [1]: 2720 ± 140 nM
Compound: CCOc1ccc(C=C2SC(=O)N(CCN)C2=O)cc1 [AMTZD, 3-(2-aminoethyl)-5-([4-ethoxyphenyl]methylene)-2,4-thiazolidinedione HCl]

Compound: HSP70 (from UniProt P17804 1-653) (natural protein)
- Km of the in vitro kinase assay (ATP consumption, Kinase-Glo) of recombinant GST-LdMAPK1 with recombinant His-tagged HSP70 as substrate [2]: 0.0176 µM

Compound: HSP90 (natural protein)
- Km of the in vitro kinase assay (ATP consumption, Kinase-Glo) of recombinant GST-LdMAPK1 with recombinant His-tagged HSP90 as substrate [2]: 0.0167 µM
